Among the data in the supplement of paper PMC10126150 are switch fluorescence ratio values, retold here.

± gives the standard deviation of the averaged measurements.
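Note: ATP exposure 15 min at 22 °C before imaging.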

This data set relates to ATP. The experiment in a line: switch fluorescence ratio, 500 uM ATP over buffer (Cy3 cluster intensity, sum of 5 cycles each) (fold (ratio)); higher = stronger signal-on switching upon ATP binding; sequences stand for … in TCGTCGGCAGCGTCAGATGTGTATAAGAGACAGTTTTTTTTTTTTTTTTTTTTTTTTT…TC. The conditions noted are these: aptamer strand: ATP DNA aptamer (quencher-CACCTGGGGGAGTATTGCGGAGGAAGG + anchor), 100 nM annealed; ATP concentration: 500 uM. The procedure, abridged: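 Between each of five buffer/ATP cycles, the flow-cell was stripped with NaOH and re-annealed. Each cycle imaged Cy3-labelled switching-strand clusters, annealed to 100 nM quencher-labelled ATP aptamer on a modified Illumina MiSeq flow-cell, first in selection buffer and then after 15 min with 500 uM ATP at 22 °C. The fluorescence ratio is summed target-cycle over summed buffer-cycle Cy3 intensity per cluster, averaged per switch-domain sequence, with clusters outside 100-1000 RFU excluded.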
As to AAATGGCACG, the switch fluorescence ratio is 0.973 ± 0.024.

In the case of TCTTAATTTT, the switch fluorescence ratio was determined as 0.973 ± 0.024.

In the case of GCTTTGTTGG, the switch fluorescence ratio turned out to be 0.984 ± 0.035.

With AGTGTGGCCA, the switch fluorescence ratio was determined as 1.02 ± 0.016.

As for ATATAAATTT, the switch fluorescence ratio turned out to be 1 ± 0.025.

GGAGAGCGGT: the switch fluorescence ratio was determined as 1.02 ± 0.011.

In the case of CAGCTATCTT, the switch fluorescence ratio was 1.039 ± 0.01.

On to GTACCCTCAA, for which the switch fluorescence ratio worked out at 1.03 ± 0.024.

TTGCGTAAAA: the switch fluorescence ratio was determined as 0.961 ± 0.047.

For TAGTATGTTT, the switch fluorescence ratio is 1.004 ± 0.0061.

As to ACGGTTCCTG, the switch fluorescence ratio stood at 1.001 ± 0.0061.

For AAGATTTGAG, the switch fluorescence ratio was 0.992 ± 0.01.

With GAGTTCACGT, the switch fluorescence ratio is 1.04 ± 0.013.

For CTAGCCCAGC, the switch fluorescence ratio was determined as 1.02 ± 0.026.

On to AAGTTAAGCC, for which the switch fluorescence ratio turned out to be 1.01 ± 0.047.

Turning to TGGATCATAG, the switch fluorescence ratio amounted to 0.999 ± 0.038.

As to GAGGAGGGGT, the switch fluorescence ratio was determined as 0.989 ± 0.039.

In the case of ACGGTTTTCA, the switch fluorescence ratio amounted to 0.977 ± 0.011.

As for GGATACCGTA, the switch fluorescence ratio was 1 ± 0.085.

As for CTGGGTTTAA, the switch fluorescence ratio was 1.02 ± 0.013.

In the case of GTCCACTGTT, the switch fluorescence ratio was determined as 0.996 ± 0.024.

In the case of AGGCGACTAT, the switch fluorescence ratio is 1 ± 0.011.

Regarding GTTGGTCTGG, the switch fluorescence ratio came out at 0.943 ± 0.048.

Take GAATGGGTAA: the switch fluorescence ratio was 1.02 ± 0.033.

With GCCTTAGCCG, the switch fluorescence ratio was 0.972 ± 0.019.

Take TTAGGGGGG: the switch fluorescence ratio is 1.01 ± 0.026.

With CGGGTGGCGG, the switch fluorescence ratio was 0.994 ± 0.012.

Turning to AGACTGTTAG, the switch fluorescence ratio is 0.976 ± 0.029.

In the case of GATAAATGAT, the switch fluorescence ratio is 1 ± 0.02.

As for TATCAGCTGA, the switch fluorescence ratio amounted to 0.9974 ± 0.0036.

Take GGTTTTTGGG: the switch fluorescence ratio amounted to 0.994 ± 0.033.

As to ATCCTTGCG, the switch fluorescence ratio came out at 1.022 ± 0.0053.

Consider TGATTAATGT, for which the switch fluorescence ratio amounted to 0.9996 ± 0.0099.

Consider GCTTCAGGCC, for which the switch fluorescence ratio was determined as 1.02 ± 0.022.

Take AGGGGGTTTG: the switch fluorescence ratio amounted to 1.01 ± 0.033.

As to AGTAGCTCTC, the switch fluorescence ratio came to 1.02 ± 0.013.

For TAAAATGTTT, the switch fluorescence ratio came out at 0.998 ± 0.013.

With AAGCCCGCAC, the switch fluorescence ratio turned out to be 1.879 ± 0.0067.

Turning to ATAATAGAGC, the switch fluorescence ratio came out at 1 ± 0.023.

Take TATTGGGTCG: the switch fluorescence ratio was found to be 0.99 ± 0.023.

As to TAAGATGTAT, the switch fluorescence ratio is 0.968 ± 0.031.

Turning to CCGCGGTCGT, the switch fluorescence ratio is 1.3 ± 0.085.

For the sequence GGGGGAGAG, the switch fluorescence ratio came to 0.979 ± 0.034.

Regarding AAGGGGGACA, the switch fluorescence ratio is 0.992 ± 0.032.

Regarding ATGGAGAAAG, the switch fluorescence ratio came to 1.02 ± 0.059.

TTTGGAATTT: the switch fluorescence ratio worked out at 1.06 ± 0.1.

Regarding GAATTAATCG, the switch fluorescence ratio amounted to 0.988 ± 0.039.

Consider AGGTCGTCGT, for which the switch fluorescence ratio stood at 0.955 ± 0.017.

CAGTTCTGGG: the switch fluorescence ratio is 0.9872 ± 0.0097.

In the case of TTGGAAAAGT, the switch fluorescence ratio is 0.988 ± 0.036.

For CAGTTGGGAT, the switch fluorescence ratio turned out to be 0.969 ± 0.026.

For TGGAATTGCC, the switch fluorescence ratio amounted to 1.024 ± 0.0089.

On to ACGCCGCGTT, for which the switch fluorescence ratio worked out at 1.42 ± 0.032.

As for AAGGTTGCAA, the switch fluorescence ratio was determined as 1.01 ± 0.011.

As to AAAATCAGCG, the switch fluorescence ratio was 1 ± 0.051.

Consider ACATGTTGCC, for which the switch fluorescence ratio was 1.02 ± 0.0074.

For the sequence TTTGTGCAGG, the switch fluorescence ratio came to 1.04 ± 0.046.

Consider AACAGCAATT, for which the switch fluorescence ratio was determined as 1.27 ± 0.35.

As for AATCAAACAT, the switch fluorescence ratio stood at 1.03 ± 0.018.

With GTAAGAGCGG, the switch fluorescence ratio amounted to 0.9983 ± 0.0065.

Regarding ACATGATTGG, the switch fluorescence ratio is 0.97 ± 0.037.

For TGCAAGCGAC, the switch fluorescence ratio came out at 2.61 ± 0.18.

As to GGTGTTGGTA, the switch fluorescence ratio was 0.974 ± 0.029.

For the sequence AAGAATATCA, the switch fluorescence ratio stood at 1.02 ± 0.016.

With GGGTGGTGGT, the switch fluorescence ratio stood at 0.981 ± 0.043.

As for GATTTTTTGC, the switch fluorescence ratio came out at 0.98176 ± 0.00098.

As to TAGAGAGGGT, the switch fluorescence ratio turned out to be 0.995 ± 0.035.
